First the molecules themselves.
B1: FtsZ (purified, WT) [E. coli] / ZapD (purified) [E. coli] (parent)
chain 1: MQTQVLFEHPLNEKMRTWLRIEFLIQQLTVNLPIVDHAGALHFFRNVSELLDVFERGEVRTELLKELDRQQRKLQTWIGVPGVDQSRIEALIQQLKAAGSVLISAPRIGQFLREDRLIALVRQRLSIPGGCCSFDLPTLHIWLHLPQAQRDSQVETWIASLNPLTQALTMVLDLIRQSAPFRKQTSLNGFYQDNGGDADLLRLNLSLDSQLYPQISGHKSRFAIRFMPLDTENGQVPERLDFELACC
chain 2: MFEPMELTNDAVIKVIGVGGGGGNAVEHMVRERIEGVEFFAVNTDAQALRKTAVGQTIQIGSGITKGLGAGANPEVGRNAADEDRDALRAALEGADMVFIAAGMGGGTGTGAAPVVAEVAKDLGILTVAVVTKPFNFEGKKRMAFAEQGITELSKHVDSLITIPNDKLLKVLGRGISLLDAFGAANDVLKGAVQGIAELITRPGLMNVDFADVRTVMSEMGYAMMGSGVASGEDRAEEAAEMAISSPLLEDIDLSGARGVLVNITAGFDLRLDEFETVGNTIRAFASDNATVVIGTSLDPDMNDELRVTVVATGIGMDKRPEITLVTNKQVQQPVMDRYQQHGMAPLTQEQKPVAKVVNDNAPQTAKEPDYLDIPAFLRKQAD

In this experiment the parent is B1. As to the kind of experiment: co-sedimentation assay, SDS-PAGE quantification. The following applies: with ZapD (purified) [E. coli], 50 mM K-MOPS pH 6.5, 50 mM KCl, 2.5 mM MgCl2, 1 mM GTP, 3 µM BSA, read off a plot.

Regarding chain 2 MFEPMELTNDAVIKVIGVGGGGGNAVEHMVRERIEGVEFFAVNTDAQALRKTAVGQTIQIGSGITKGLGAGANPEVGRNAADEDRDALRAALEGADMVFIAAGMGGGTGTGAAPVVAEVAKDLGILTVAVVTKPFNFEGKKRMAFAEQGITELSKHVDSLITIPNDKLLKVLGRGISLLDAFGAANDVLKGAVQGIAELITRPGLMNVDFADVRTVMSEMGYAMMGSGVASGEDRAEEAAEMAISSPLLEDIDLSGARGVLVNITAGFDLRLDEFETVGNTIRAFASDNATVVIGTSLDPDMNDELRVTVVATGIGMDKRPEITLVTNKQVQQPVMDRYQQHGMAPLTQEQKPVAKVVNDNAPQTAKEPDYLDIPAFLRDQAD [chain 2 K380D], the response (% ZapD in pellet) (5 µM FtsZ with ZapD at 1:0.2) amounted to 14 and the response (% ZapD in pellet) (5 µM FtsZ with ZapD at 1:1) came to 10.

Take chain 2 MFEPMELTNDAVIKVIGVGGGGGNAVEHMVRERIEGVEFFAVNTDAQALRKTAVGQTIQIGSGITKGLGAGANPEVGRNAADEDRDALRAALEGADMVFIAAGMGGGTGTGAAPVVAEVAKDLGILTVAVVTKPFNFEGKKRMAFAEQGITELSKHVDSLITIPNDKLLKVLGRGISLLDAFGAANDVLKGAVQGIAELITRPGLMNVDFADVRTVMSEMGYAMMGSGVASGEDRAEEAAEMAISSPLLEDIDLSGARGVLVNITAGFDLRLDEFETVGNTIRAFASDNATVVIGTSLDPDMNDELRVTVVATGIGMDKRPEITLVTNKQVQQPVMDRYQQHGMAPLTQEQKPVAKVVNDNAPQTAKEPDYLDIPAFLRKQAK [chain 2 D383K]: the response (% ZapD in pellet) worked out at 71 (5 µM FtsZ with ZapD at 1:0.2) and 60 (5 µM FtsZ with ZapD at 1:1).

For chain 2 MFEPMELTNDAVIKVIGVGGGGGNAVEHMVRERIEGVEFFAVNTDAQALRKTAVGQTIQIGSGITKGLGAGANPEVGRNAADEDRDALRAALEGADMVFIAAGMGGGTGTGAAPVVAEVAKDLGILTVAVVTKPFNFEGKKRMAFAEQGITELSKHVDSLITIPNDKLLKVLGRGISLLDAFGAANDVLKGAVQGIAELITRPGLMNVDFADVRTVMSEMGYAMMGSGVASGEDRAEEAAEMAISSPLLEDIDLSGARGVLVNITAGFDLRLDEFETVGNTIRAFASDNATVVIGTSLDPDMNDELRVTVVATGIGMDKRPEITLVTNKQVQQPVMDRYQQHGMAPLTQEQKPVAKVVNDNAPQTAKEPDYLDIPAFLRRQAR [chain 2 K380R D383R], the response (% ZapD in pellet) (5 µM FtsZ with ZapD at 1:0.2) was 16 and the response (% ZapD in pellet) (5 µM FtsZ with ZapD at 1:1) turned out to be 35.

chain 2 MFEPMELTNDAVIKVIGVGGGGGNAVEHMVRERIEGVEFFAVNTDAQALRKTAVGQTIQIGSGITKGLGAGANPEVGRNAADEDRDALRAALEGADMVFIAAGMGGGTGTGAAPVVAEVAKDLGILTVAVVTKPFNFEGKKRMAFAEQGITELSKHVDSLITIPNDKLLKVLGRGISLLDAFGAANDVLKGAVQGIAELITRPGLMNVDFADVRTVMSEMGYAMMGSGVASGEDRAEEAAEMAISSPLLEDIDLSGARGVLVNITAGFDLRLDEFETVGNTIRAFASDNATVVIGTSLDPDMNDELRVTVVATGIGMDKRPEITLVTNKQVQQPVMDRYQQHGMAPLTQEQKPVAKVVNDNAPQTAKEPDYLDIPAFLRQQQQ [chain 2 K380Q A382Q D383Q]: the response (% ZapD in pellet) (5 µM FtsZ with ZapD at 1:0.2) is 42 and the response (% ZapD in pellet) (5 µM FtsZ with ZapD at 1:1) worked out at 42.

These data come from PMC4835091.
